Results taken from the nanobody polyreactivity screen of Harvey et al. (2022).

Experiment: yeast display, Sf9 membrane polyspecificity reagent, FACS + sequencing; frameworks hold sequencing errors
Procedure, shortened: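 Galactose induction of a Saccharomyces cerevisiae BJ5465 synthetic nanobody display library ran 36–48 hours. The cells were then stained for 1 hour at 4 °C with 10% biotinylated, detergent-solubilized Sf9 membrane reagent, pulled down on streptavidin microbeads and FACS-sorted into low and high (top ~1%) gates on expression and reagent-binding fluorescence. Labels for polyreactivity follow the gate of origin.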

## QVQLVESGGGLVQAGGSLRLSCAASGLIFRYYAMGWYRQAPGKERELVAAISWSGASTYYADSVKGRFTISRDNAKNTVYLQMNSLKPEDTAVYYCGRVSYYYPSEYNYWGQGTQVTVSS
  polyreactivity (PSR sort gate): high polyreactivity

## QVQLVESGGGLVQAGGSLRLSCAASGRTFVSNAMGWYRQAPGKERELVAAISVRGGRTYYADSVKGRFTISRDNAKNTVYLQMNSLKPEDTAVYYCNAVYRTYEYYWGQGTQVTVSS
  polyreactivity (PSR sort gate): high polyreactivity

## QVQLVESGGGLVQAGGSLRLSCAASGITFYFNTMGWYRQAPGKERELVASIRNTGSTYADSVKGRFTISRDNAKNTVYLQMNSLKPEDTAVYYCAARRRKYYRGEYGYWGQGTQVTVSS
  polyreactivity (PSR sort gate): high polyreactivity

## QVQLVESGGGLVQAGGSLRLSCAASGSIFFYNAMGWYRQAPGKERELVAAISRGGNTNYADSVKGRFTISRDNAKNTVNLQLNSLKPEDTAVYYCNADYSFWATPYWEYGYDYWGQGTQVTVTS
  polyreactivity (PSR sort gate): low polyreactivity

## QVQLVESGGGLVQAGGSLRLSCAASGRTFNVYAMGWYRQAPGKERELVAVITNGGSTNYADSVKGRFTISRDNAKNTVYLQMNSLKPEDTAVYYCAGDYYASLTREDRDDYWGQGTQVTVSS
  polyreactivity (PSR sort gate): low polyreactivity

## QVQLVESGGGLVQAGGSLRLSCAPSGGTFPFNAMGWYRQAPGKERELVAAISGRSGRTYYADSVKGRFTISRDNAKNTVDLQMNRLKPEDTAVYYCAARRWRPYDYWGQGTQVTVSS
  polyreactivity (PSR sort gate): high polyreactivity

## QFQLVESGGGLVQAGGSLRLSCAASGSTFDTYAMGWYRQAPGKERDLFAAISGSGVRTYYADSVKGRFTISRDNAKNTVYLQMNSLKPEDTAVYYSAAAGSGYGGKQFDHGFNYWGQGTQVTVSS
  polyreactivity (PSR sort gate): high polyreactivity

## QVQLVESGGGLVQAGGSLRLSCAASGRIFRSYAMGWSIQAPGKERELVAAITSGGSTNYADSVKGRFTISRDNAKNTVYLQMNSLKPEDTAVYYCAARWPWYGKLRYYYWGQGTQVTVSS
  polyreactivity (PSR sort gate): high polyreactivity

## QVQLVESGGGLVQAGGSLRLSCAASGLIFSSNAMGWYRQAPGKERELVAAISRRGANTYYADSVKGRFTISRDNAKNTVYLQMNSLKPQDTAVYYCAKRYVGRGTSYQDYYWGQGTQVTVSS
  polyreactivity (PSR sort gate): high polyreactivity

## QVQLVESGAVLVQAGGSIRLSCAASGSSFPYYAMGWYRQAPVKERELVATISQDGGRTYADSVKGRFTISRDNAKNTVYLQMNSLKPEDTAVDYCAADYSVNYDFGYWGQGTQVTVSS
  polyreactivity (PSR sort gate): low polyreactivity

## QVQLVESGGGLVQAGGSLRLSCAASGGIFGYYVMGRYRQAPGKERELVAVITRGGSTNYADSVKGRFTISRDNAKNTVYLQMNSLKPEDTAVYYCAKDVPYRRVRSEYWGQGTQVTVSS
  polyreactivity (PSR sort gate): low polyreactivity

## QVQLVESGGGLVQAGGSLRLSCAASGSTFSRYAMGWSRQAPGKERELVAAISSSGGSTYYADSVKGRFTISRDNAKNTVYLQMNSLKPEDTAVYYCAARIWRTRRYDYWGQGTQVTVSS
  polyreactivity (PSR sort gate): high polyreactivity

## QVQLVESGGGLVQAGGSLRLSCAAYGRIFGWYAMGWYRQAPGKERELVAAISSSTSTYYADSVKGRFTISRDNEKNTVYLQMNSLKPEDTAVYYCNADWYYQRVQYYWYRYDYWGQGTQVTVSS
  polyreactivity (PSR sort gate): high polyreactivity

## KVQLVDSGGGLVQAGGSLRLSCAASGSIFGDNAMGWYIQAPGKERELVAAISIVGSTSYADSVKGRFTISRDNAKNTVYLLMNSLKPEDTAVYYCAAENVRSDTGFDYCGQGTQVTVSS
  polyreactivity (PSR sort gate): low polyreactivity

## QVQLVESGGGLVQAGGSLRLSCAASGYTFKRYAMGWSRQAPGKERELVAAISSSGSSTYYADSVKGRFTISRDNAKNTVYLQMNSLKPEDTAVYYCAAVYRYGYWGQGTQVTVSS
  polyreactivity (PSR sort gate): high polyreactivity

## QVQHVESGGGLVQAGRSLRLSCAASGSIFRDNDMGWYRQATGKEREFVAAINWSGVSTYYADSVKGRFTISRDNAKNTVYLQMNSLKPEDTAVSYCAAGYLKWRRYNYWGQGTQVTVSS
  polyreactivity (PSR sort gate): high polyreactivity

## QVQLVESGGGLVQAGGSLRLSSAANGMIYVSYAMGWYRQAPGKERELVATITRSGGSTYYADSVKGRFTISRDNAKNTVYLQMNSLKPEDTAVYYCARYWRTSGVRMDYWGQGTQVTVSS
  polyreactivity (PSR sort gate): high polyreactivity

## QVHLVESGVGLVQAGGSLRLSCAASGYTFPAYAMGRYRQAPVKERELVAGISSGGRTYYAYSVKGRFTISRDNAKNTVYLQMNSLKPEDTAVYYCAAFRFYWQSPERYYYWGQGTQVSVSS
  polyreactivity (PSR sort gate): high polyreactivity

## QVQLVESGGGLVQAGGSLRLSCAASGLIFYLYAMGWYRQAPGKERELVAAITSGGGSTYYADSVKGRFTHSRDHAKNTVYLQMNSLKPEDTGVYYCAARLVLYITVVYEDDYWGQGTQVTVSS
  polyreactivity (PSR sort gate): low polyreactivity

## QVQLVESGGGLVQAGGSLRLSCAASGSIILHNAMGWYRQAPGKERELVAGITGSGGSTYYADSVKGRFTISRDNAMNTVYLQMNSLKPEDTAVYYCAAGSRSRYYRYVYYKYVTMDYWGQGTQVTVSS
  polyreactivity (PSR sort gate): high polyreactivity

## QVQLVESGGGLVQAGGSLRLSCAASGSTFYPNAMGWYRQAPGKEREFVAAITWSGGRTYYADSVKGRFTISRDNAKNTVYLLMNSLKPEDTAVYYCAVGGNSRRYWGQGTQVTVSS
  polyreactivity (PSR sort gate): high polyreactivity

## QVQLVESGGGLVQAGGSLRLSCAASGRTFPYYAMGWYRQAPGKERELVATITRGGSTYYADSVKGRFTISRDNAKNTVYLQMNSLKPEDTAVYYCNADYWGHRFYFPGRRDYWGQGTQVTVSS
  polyreactivity (PSR sort gate): low polyreactivity

## QVQLVESGGGLVQAGGSLRLSCAASGRTFYYYAMGWNRQAPGTERELVAAITTDGGNTYYADSVKGRFTISRDTAKNTVYLQMNSLKPEDTAVYYCATDGYEYTDYGSSGYDYWGQGTQVTVSS
  polyreactivity (PSR sort gate): low polyreactivity

## QVQLVESGGGLVQAGGSLRLSCAASGYIFGVYVMGSYRQAPGKERELVAAITRGGGNTYYADSVKGRFTISRDNAKNSVYLQMNSLKPEDTAVYYCAARSLKSLSRYYYWGQGTQVTVSS
  polyreactivity (PSR sort gate): high polyreactivity

## QVQLVESGGGLVQAGGSLRLSCAASGSIFWFYAMGWYRQAPGKERELVAAISYSGGITYYADSVKGRFTISRDNAKNTVYLQMNSLKPEDTAVYYCNADGPSTPWVDYGYWGQGTQVTVSS
  polyreactivity (PSR sort gate): low polyreactivity

## QVQLHESGGGLVQAGGSLRLSCAASGTISVTYNMGWYRQAPGKEREFVAGNSTGATTNYADSVKDRFTISRDNAKNTLYLQMNRLKPEDTAVYYCAAHIYRQDHFYYWGQGTQVTVSS
  polyreactivity (PSR sort gate): low polyreactivity

## QVQLVESGGGLVQAGGSLRLSCAASGSIFQWYAMGWYRQAPGKERELVAAITISGTRTYYADSVKGRFTISRDNAKYTVYLQMNSLKPEDTAVYYCAATEGGRFRRIADASMYYWGQGTQVTVSS
  polyreactivity (PSR sort gate): high polyreactivity

## QVQLVESGGGLVQAGGSLRLSCAASGFIFDYYAMGWYRQAPGKERELVAAITSRGGSTYYADSVKGRFTISRDNAKNTVYLQMNSLKPEDTAVYYCAARRRYAEYNYWGQGTQVTVSS
  polyreactivity (PSR sort gate): high polyreactivity

## QVQLVESGGGLVQAGGSLRLSCAASGINFKGNAMGWYRQAPGKERELVATISSGGTTNYADSVKGRFTISRDNAKNTVYLQMNSLKPEDTAVYYCAKRGYYRSRRYDYWGQGTQVTVSS
  polyreactivity (PSR sort gate): high polyreactivity

## QVQLVESGGGLVQAGGSLRLSCAASGRIFDNNAMGWYRQAPGKERELVAAIDWRGGSTDYADSVKGRFTISRDNAKNNVYLHMNSLKQEDTAVYYCVAGHVRYWHGYSYDYWGQGTQVTVSS
  polyreactivity (PSR sort gate): low polyreactivity

## QVQLQESGGVQAGGSLRLSCAASGYITRSDVMGSYRQAPGKERELVATINNGTMTYYADSEKGRYTISRDNAKKTVYLQKNSQKPEDTAVHYCAVDQSDTDSLYYWGQGTQVTVSS
  polyreactivity (PSR sort gate): low polyreactivity

## QVQLVESGGGLVQAGGSLRVSCAASGSTFTNYAMGVYRQAPRKERELIARITYNVGRTYYADSVKGRFTISRDNAKNTVYLQMNSLKPEDTAVYYCAAGVGWRYRVRWYYYLGDYWGQVTQVTVSS
  polyreactivity (PSR sort gate): high polyreactivity
